Measurements: US20230346967A1 (published 2023)

T1: recombinant human TfR2 (human, UniProt Q9UP52 105-801, limits assumed)
T1 construct: also called hTfR2; transferrin receptor 2
T1 sequence (looked up): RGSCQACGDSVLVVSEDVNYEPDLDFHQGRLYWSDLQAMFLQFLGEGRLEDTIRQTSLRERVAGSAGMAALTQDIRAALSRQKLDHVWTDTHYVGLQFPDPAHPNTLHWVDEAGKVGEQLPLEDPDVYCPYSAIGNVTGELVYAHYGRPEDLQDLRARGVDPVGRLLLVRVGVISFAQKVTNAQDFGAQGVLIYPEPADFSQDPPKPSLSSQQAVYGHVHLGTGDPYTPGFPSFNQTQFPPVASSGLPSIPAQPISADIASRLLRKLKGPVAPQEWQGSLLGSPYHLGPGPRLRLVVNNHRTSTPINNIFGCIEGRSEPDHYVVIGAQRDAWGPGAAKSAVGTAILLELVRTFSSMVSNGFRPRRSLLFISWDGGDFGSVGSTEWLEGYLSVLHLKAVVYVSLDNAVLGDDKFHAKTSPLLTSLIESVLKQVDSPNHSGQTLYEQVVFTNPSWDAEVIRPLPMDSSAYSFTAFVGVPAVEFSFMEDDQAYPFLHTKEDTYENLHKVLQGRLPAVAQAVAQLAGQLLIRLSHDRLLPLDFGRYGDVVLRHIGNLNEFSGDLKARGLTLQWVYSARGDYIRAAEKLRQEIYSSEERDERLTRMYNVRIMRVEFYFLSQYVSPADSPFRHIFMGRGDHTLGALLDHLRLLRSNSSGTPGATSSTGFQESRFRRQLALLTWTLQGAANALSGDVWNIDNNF

B1: humanized anti-TfR Fab 3M12 VH4/Vκ3 (Fab, V domains shown)
VH: QVQLQESGPGLVKPSQTLSLTCTVTGYSITSGYYWNWIRQPPGKGLEWIGYITFDGANNYNPSLKNRVSISRDTSKNQFSLKLSSVTAEDTATYYCTRSSYDYDVLDYWGQGTTVTVSS
VL: DIQMTQSPSSLSASVGDRVTITCRASQDISNFLNWYQQKPGQPVKLLIYYTSRLHSGVPSRFSGSGSGTDFTLTISSLQPEDFATYYCQQGHTLPYTFGQGTKLEIKR
notes: also called 3M12 (VH4/Vk3); 3M12 VH4/VK3
B2: humanized anti-TfR Fab 3A4 VH3/Vκ4 conjugated to DMPK-targeting oligonucleotide ASO300 (Fab, V domains shown)
VH: EVQLVQSGSELKKPGASVKVSCTASGFNIKDDYMYWVRQPPGKGLEWIGWIDPENGDTEYASKFQDRVTVTADTSTNTAYMELSSLRSEDTAVYYCTLWLRRGLDYWGQGTLVTVSS
VL: DIVMTQSPLSLPVTPGEPASISCRSSKSLLHSNGYTYLFWFQQRPGQSPRLLIYRMSNLASGVPDRFSGSGSGTDFTLKISRVEAEDVGVYYCMQHLEYPFTFGGGTKVEIKR
modifications: DMPK-targeting oligonucleotide ASO300 conjugated to the Fab; chain and residue not stated for this example
notes: The oligonucleotide may sit on either chain; also called 3A4 (VH3/Vk4) conjugate; DMPK oligo conjugate

Key:
recombinant rat TfR1 = recombinant rat TfR1 (rat, UniProt Q99376 89-761, limits assumed); assay: ELISA, plates precoated with recombinant TfR1
Protocol: (§1) Serial dilutions of the Fab were added to plates precoated with recombinant human, cynomolgus monkey, mouse, or rat TfR1. After a short incubation, binding of the Fab was quantified by addition of a fluorescently tagged anti-(H+L) IgG secondary antibody and measurement of fluorescence intensity at 495 nm excitation and 520 nm emission.

recombinant mouse TfR1 = recombinant mouse TfR1 (mouse, UniProt Q62351 89-763); assay: ELISA, plates precoated with recombinant TfR1
Protocol: as §1

recombinant human TfR2 = biological target: T1, recombinant human TfR2; assay: SPR
recombinant human TfR1 = biological target: T2, recombinant human TfR1 (human, UniProt P02786 89-760); assay: printed: DMPK oligo conjugate binding to hTfR1
T2 construct: also called hTfR1; huTfR1
T2 sequence (P02786 89-760 limits assumed): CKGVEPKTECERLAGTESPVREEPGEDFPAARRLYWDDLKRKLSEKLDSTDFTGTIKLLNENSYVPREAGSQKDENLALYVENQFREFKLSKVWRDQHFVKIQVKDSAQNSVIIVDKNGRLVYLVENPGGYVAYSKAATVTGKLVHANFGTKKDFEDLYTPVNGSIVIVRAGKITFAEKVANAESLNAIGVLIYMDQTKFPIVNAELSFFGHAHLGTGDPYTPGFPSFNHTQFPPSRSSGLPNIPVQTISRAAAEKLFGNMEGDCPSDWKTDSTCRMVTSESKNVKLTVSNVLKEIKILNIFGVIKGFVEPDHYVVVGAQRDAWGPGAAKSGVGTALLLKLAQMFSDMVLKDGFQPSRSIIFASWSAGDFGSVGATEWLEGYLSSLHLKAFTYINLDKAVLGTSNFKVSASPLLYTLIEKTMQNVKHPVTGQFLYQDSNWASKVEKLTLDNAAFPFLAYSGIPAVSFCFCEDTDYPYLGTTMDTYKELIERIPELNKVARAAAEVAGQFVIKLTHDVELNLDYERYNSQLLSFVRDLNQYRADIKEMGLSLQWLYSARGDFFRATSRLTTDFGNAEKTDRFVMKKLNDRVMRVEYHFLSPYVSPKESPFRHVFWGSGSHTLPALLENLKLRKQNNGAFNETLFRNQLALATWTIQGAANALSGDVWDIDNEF

recombinant mouse TfR1, sequence (Q62351 89-763 limits assumed): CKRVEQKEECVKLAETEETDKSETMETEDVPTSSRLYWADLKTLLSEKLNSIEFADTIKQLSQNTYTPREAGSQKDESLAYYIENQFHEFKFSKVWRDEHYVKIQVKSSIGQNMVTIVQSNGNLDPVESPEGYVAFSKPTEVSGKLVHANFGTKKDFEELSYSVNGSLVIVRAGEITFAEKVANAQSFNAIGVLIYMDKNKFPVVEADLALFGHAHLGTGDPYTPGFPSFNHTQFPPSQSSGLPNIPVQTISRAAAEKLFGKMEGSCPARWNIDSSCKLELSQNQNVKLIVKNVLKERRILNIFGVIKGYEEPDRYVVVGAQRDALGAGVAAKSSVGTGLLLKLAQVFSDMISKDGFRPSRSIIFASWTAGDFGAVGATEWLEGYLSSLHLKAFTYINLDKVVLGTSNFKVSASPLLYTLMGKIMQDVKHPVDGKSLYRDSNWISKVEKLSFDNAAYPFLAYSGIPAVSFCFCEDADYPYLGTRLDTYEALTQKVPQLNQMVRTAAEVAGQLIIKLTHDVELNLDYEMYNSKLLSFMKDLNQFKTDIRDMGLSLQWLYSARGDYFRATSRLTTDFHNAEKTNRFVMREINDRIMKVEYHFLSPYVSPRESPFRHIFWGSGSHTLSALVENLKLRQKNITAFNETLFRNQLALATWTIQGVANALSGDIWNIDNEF
recombinant rat TfR1, sequence (Q99376 89-761 limits assumed): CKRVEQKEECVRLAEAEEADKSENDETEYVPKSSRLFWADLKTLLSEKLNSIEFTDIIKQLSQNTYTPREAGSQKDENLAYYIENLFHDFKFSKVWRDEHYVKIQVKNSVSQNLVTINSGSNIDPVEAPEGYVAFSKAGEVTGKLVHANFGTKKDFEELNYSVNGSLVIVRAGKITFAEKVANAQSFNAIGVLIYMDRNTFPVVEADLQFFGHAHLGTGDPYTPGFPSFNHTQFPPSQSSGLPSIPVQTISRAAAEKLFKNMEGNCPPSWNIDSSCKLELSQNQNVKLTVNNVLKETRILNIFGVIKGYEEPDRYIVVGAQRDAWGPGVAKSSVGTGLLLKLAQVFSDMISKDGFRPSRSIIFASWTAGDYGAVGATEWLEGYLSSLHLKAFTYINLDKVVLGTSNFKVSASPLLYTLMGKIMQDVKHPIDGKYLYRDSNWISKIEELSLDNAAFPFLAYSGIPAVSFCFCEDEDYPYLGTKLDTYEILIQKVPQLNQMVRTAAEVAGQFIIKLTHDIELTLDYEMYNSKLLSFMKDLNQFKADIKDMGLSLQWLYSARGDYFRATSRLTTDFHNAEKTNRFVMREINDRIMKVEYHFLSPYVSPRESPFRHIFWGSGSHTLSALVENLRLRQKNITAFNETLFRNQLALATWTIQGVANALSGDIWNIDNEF

Binder | binding result (recombinant rat TfR1) | binding result (recombinant mouse TfR1) | binding result (recombinant human TfR2) | EC50 (recombinant human TfR1)
B1 | no binding | no binding | no binding | –
B2 | – | – | – | 2.84 nM
